The test system of the assay is primary human B cells. Nature of the assay: Expansion and maintenance of BCL-6/BCL-XL/CD40L transduced primary human B cells in culture. The assay is classed as cell-based. The conditions noted are these: BCL-6/BCL-xL transduced B cells, IL-21 50 ng/mL, absence of L-cells. On the procedure: The activated, isolated B cells (FIG. 7A) were stably transduced with BCL-6/BCL-xL or a combination of BCL-6/BCL-XL and CD40L based protocols for retroviral transduction of primary B cells have been described in the literature (e.g. Kwakkenbos et al. Nat Med 2010) and as described in this invention (Example 10).
After 72 hours BCL-6/BCL-XL modified B cells were harvested, split and either cultured in the absence of L-cells or cultured on hCD40L expressing L cells. BCL-6/BCL-xL and CD40L transduced B cells are cultured in complete B cell medium supplemented with 50 ng/mL IL-21 in the absence of L-cells. […] CD40L expression on the B cells is measured on a flow cytometer using an antibody directed against CD154 (FIG. 7C).
B cells were isolated from healthy donor PBMC using the magnetic bead-based cell separation method from Miltenyi. […] Purity of the isolated B cells was measured by FACS using antibodies directed against CD3 and CD20. […] Expression of BCL6/BCL-xL was measured by FACS by GFP expression. […] Expression of BCL6/BCL-xL was measured by GFP expression and expression of CD40L was measured using an antibody directed against CD154, analyzed by FACS. […] Cells were split twice a week at a concentration of 0.2e6/mL cells and cell viability was analyzed. […] The total cumulative cell counts was calculated based on counts that were measured while splitting the cells. […]

The values that follow come from patent publication US20220228164A1, “ENGINEERED ANTIGEN PRESENTING CELLS” (Neogene Therapeutics B.V., priority 2021, published 2022).

B1: CD40L transgene: hCD40L transgene expressed in BCL-6/BCL-xL immortalized B cells (protein)
DNA: MIETYNQTSPRSAATGLPISMKIFMYLLTVFLITQMIGSALFAVYLHRRLDKIEDERNLHEDFVFMKTIQRCNTGERSLSLLNCEEIKSQFEGFVKDIMLNKEETKKENSFEMQKGDQNPQIAAHVISEASSKTTSVLQWAEKGYYTMSNNLVTLENGKQLTVKRQGLYYIYAQVTFCSNREASSQAPFIASLCLKSPGRFERILLRAANTHSSAKPCGQQSIHLGGVFELQPGASVFVNVTDPSQVSHGTGFTSFGLLKL
For B1, the “B cell expansion without CD40L-expressing feeder cells” value is “can be used as a replacement for CD40L-expressing feeder cells for expansion”.
